{"source": "the RNAGym collection of RNA variant scans (doi:10.7554/elife.80360)", "parents": {"B1": {"name": "CPEB3 Ribozyme (parent)", "chain": "GGGGGCCACAGCAGAAGCGUUCACGUCGCGGCCCCUGUCAGAUUCUGGUGAAUCUGCGAAUUCUGCUGU"}}, "data": [{"variants_of": "B1", "experiment": "self-cleavage, relative activity (ratio to wild type); higher = more cleavage; co-transcriptional", "values": [{"variant": "U21C C54G", "self-cleavage": 0.688}, {"variant": "U21C C54U", "self-cleavage": 0.883}, {"variant": "U21C C57A", "self-cleavage": 0.252}, {"variant": "U21C C57U", "self-cleavage": 0.379}, {"variant": "U21C C63A", "self-cleavage": 0.47}, {"variant": "U21C C63G", "self-cleavage": 0.635}, {"variant": "U21C C63U", "self-cleavage": 0.804}, {"variant": "U21C C66G", "self-cleavage": 0.744}, {"variant": "U21C C66U", "self-cleavage": 0.887}, {"variant": "U21C G25A", "self-cleavage": 0.121}, {"variant": "U21C G25C", "self-cleavage": 0.118}, {"variant": "U21C G25U", "self-cleavage": 0.13}, {"variant": "U21C G28C", "self-cleavage": 0.0853}, {"variant": "U21C G28U", "self-cleavage": 0.105}, {"variant": "U21C G30A", "self-cleavage": 0.522}, {"variant": "U21C G30C", "self-cleavage": 0.235}, {"variant": "U21C G30U", "self-cleavage": 0.268}, {"variant": "U21C G31U", "self-cleavage": 0.395}, {"variant": "U21C G37C", "self-cleavage": 0.23}, {"variant": "U21C G41A", "self-cleavage": 0.677}, {"variant": "U21C G41C", "self-cleavage": 0.538}, {"variant": "U21C G41U", "self-cleavage": 0.73}, {"variant": "U21C G47A", "self-cleavage": 0.915}, {"variant": "U21C G47C", "self-cleavage": 0.915}, {"variant": "U21C G47U", "self-cleavage": 0.978}, {"variant": "U21C G48C", "self-cleavage": 0.967}, {"variant": "U21C G48U", "self-cleavage": 0.901}, {"variant": "U21C G50A", "self-cleavage": 0.949}, {"variant": "U21C G50C", "self-cleavage": 0.849}, {"variant": "U21C G50U", "self-cleavage": 0.878}, {"variant": "U21C G56A", "self-cleavage": 0.657}, {"variant": "U21C G56U", "self-cleavage": 0.693}, {"variant": "U21C G58A", "self-cleavage": 0.673}, {"variant": "U21C G58C", "self-cleavage": 0.826}, {"variant": "U21C G58U", "self-cleavage": 0.952}, {"variant": "U21C G65A", "self-cleavage": 0.671}, {"variant": "U21C G65C", "self-cleavage": 0.393}, {"variant": "U21C G65U", "self-cleavage": 0.488}, {"variant": "U21C G68A", "self-cleavage": 1}, {"variant": "U21C U26C", "self-cleavage": 0.805}, {"variant": "U21C U26G", "self-cleavage": 0.459}, {"variant": "U21C U36A", "self-cleavage": 0.0993}, {"variant": "U21C U36C", "self-cleavage": 0.479}, {"variant": "U21C U36G", "self-cleavage": 0.286}, {"variant": "U21C U38A", "self-cleavage": 0.171}, {"variant": "U21C U38C", "self-cleavage": 0.808}, {"variant": "U21C U38G", "self-cleavage": 0.432}, {"variant": "U21C U43A", "self-cleavage": 0.771}, {"variant": "U21C U43G", "self-cleavage": 0.682}, {"variant": "U21C U46A", "self-cleavage": 0.88}, {"variant": "U21C U46G", "self-cleavage": 0.991}, {"variant": "U21C U49A", "self-cleavage": 0.847}, {"variant": "U21C U49C", "self-cleavage": 0.868}, {"variant": "U21C U49G", "self-cleavage": 0.927}, {"variant": "U21C U53A", "self-cleavage": 0.765}, {"variant": "U21C U53C", "self-cleavage": 0.726}, {"variant": "U21C U55C", "self-cleavage": 0.611}, {"variant": "U21C U61C", "self-cleavage": 0.572}, {"variant": "U21C U61G", "self-cleavage": 0.7}, {"variant": "U21C U62C", "self-cleavage": 0.516}, {"variant": "U21C U62G", "self-cleavage": 0.614}, {"variant": "U21C U64C", "self-cleavage": 0.609}, {"variant": "U21C U64G", "self-cleavage": 0.75}, {"variant": "U21C U67A", "self-cleavage": 0.921}, {"variant": "U21C U67C", "self-cleavage": 0.898}, {"variant": "U21C U69C", "self-cleavage": 1.05}, {"variant": "U21G", "self-cleavage": 0.644}, {"variant": "U21G A23C", "self-cleavage": 0.379}, {"variant": "U21G A23U", "self-cleavage": 0.483}, {"variant": "U21G A40G", "self-cleavage": 0.463}, {"variant": "U21G A40U", "self-cleavage": 0.317}, {"variant": "U21G A42C", "self-cleavage": 0.303}, {"variant": "U21G A42U", "self-cleavage": 0.503}, {"variant": "U21G A51C", "self-cleavage": 0.509}, {"variant": "U21G A51G", "self-cleavage": 0.54}, {"variant": "U21G A51U", "self-cleavage": 0.497}, {"variant": "U21G A52G", "self-cleavage": 0.615}, {"variant": "U21G A52U", "self-cleavage": 0.608}, {"variant": "U21G A59C", "self-cleavage": 0.223}, {"variant": "U21G A60G", "self-cleavage": 0.251}, {"variant": "U21G A60U", "self-cleavage": 0.295}, {"variant": "U21G C22A", "self-cleavage": 0.2}, {"variant": "U21G C22G", "self-cleavage": 0.227}, {"variant": "U21G C22U", "self-cleavage": 0.181}, {"variant": "U21G C24A", "self-cleavage": 0.106}, {"variant": "U21G C24U", "self-cleavage": 0.103}, {"variant": "U21G C27G", "self-cleavage": 0.227}, {"variant": "U21G C29G", "self-cleavage": 0.158}, {"variant": "U21G C29U", "self-cleavage": 0.166}, {"variant": "U21G C32A", "self-cleavage": 0.246}, {"variant": "U21G C32G", "self-cleavage": 0.189}, {"variant": "U21G C32U", "self-cleavage": 0.609}, {"variant": "U21G C33A", "self-cleavage": 0.163}, {"variant": "U21G C33G", "self-cleavage": 0.215}, {"variant": "U21G C33U", "self-cleavage": 0.575}, {"variant": "U21G C34A", "self-cleavage": 0.218}, {"variant": "U21G C35A", "self-cleavage": 0.13}, {"variant": "U21G C39G", "self-cleavage": 0.865}, {"variant": "U21G C54G", "self-cleavage": 0.423}, {"variant": "U21G C54U", "self-cleavage": 0.591}, {"variant": "U21G C57A", "self-cleavage": 0.22}, {"variant": "U21G C57U", "self-cleavage": 0.253}, {"variant": "U21G C63A", "self-cleavage": 0.245}, {"variant": "U21G C66A", "self-cleavage": 0.263}, {"variant": "U21G C66G", "self-cleavage": 0.219}, {"variant": "U21G C66U", "self-cleavage": 0.529}, {"variant": "U21G G25C", "self-cleavage": 0.185}, {"variant": "U21G G25U", "self-cleavage": 0.187}, {"variant": "U21G G28U", "self-cleavage": 0.0808}, {"variant": "U21G G31A", "self-cleavage": 0.175}, {"variant": "U21G G31U", "self-cleavage": 0.24}, {"variant": "U21G G37A", "self-cleavage": 0.193}, {"variant": "U21G G37C", "self-cleavage": 0.18}, {"variant": "U21G G37U", "self-cleavage": 0.196}, {"variant": "U21G G41A", "self-cleavage": 0.388}, {"variant": "U21G G41C", "self-cleavage": 0.276}, {"variant": "U21G G41U", "self-cleavage": 0.373}, {"variant": "U21G G48A", "self-cleavage": 0.674}, {"variant": "U21G G48C", "self-cleavage": 0.648}, {"variant": "U21G G48U", "self-cleavage": 0.594}, {"variant": "U21G G50U", "self-cleavage": 0.588}, {"variant": "U21G G56U", "self-cleavage": 0.611}, {"variant": "U21G G58C", "self-cleavage": 0.519}, {"variant": "U21G G58U", "self-cleavage": 0.657}, {"variant": "U21G G65C", "self-cleavage": 0.306}, {"variant": "U21G G65U", "self-cleavage": 0.243}, {"variant": "U21G G68A", "self-cleavage": 0.794}, {"variant": "U21G U26A", "self-cleavage": 0.3}, {"variant": "U21G U26G", "self-cleavage": 0.221}, {"variant": "U21G U36A", "self-cleavage": 0.17}, {"variant": "U21G U38A", "self-cleavage": 0.157}, {"variant": "U21G U38G", "self-cleavage": 0.274}, {"variant": "U21G U43A", "self-cleavage": 0.235}, {"variant": "U21G U43C", "self-cleavage": 0.428}, {"variant": "U21G U43G", "self-cleavage": 0.324}, {"variant": "U21G U44A", "self-cleavage": 0.498}, {"variant": "U21G U44C", "self-cleavage": 0.444}, {"variant": "U21G U44G", "self-cleavage": 0.386}, {"variant": "U21G U46A", "self-cleavage": 0.537}, {"variant": "U21G U46G", "self-cleavage": 0.503}, {"variant": "U21G U49C", "self-cleavage": 0.738}, {"variant": "U21G U53C", "self-cleavage": 0.354}, {"variant": "U21G U53G", "self-cleavage": 0.376}, {"variant": "U21G U55A", "self-cleavage": 0.592}, {"variant": "U21G U55C", "self-cleavage": 0.358}, {"variant": "U21G U55G", "self-cleavage": 0.346}, {"variant": "U21G U61C", "self-cleavage": 0.214}, {"variant": "U21G U61G", "self-cleavage": 0.24}, {"variant": "U21G U62A", "self-cleavage": 0.316}, {"variant": "U21G U62C", "self-cleavage": 0.305}, {"variant": "U21G U62G", "self-cleavage": 0.273}, {"variant": "U21G U67G", "self-cleavage": 0.579}, {"variant": "U21G U69A", "self-cleavage": 0.667}, {"variant": "U21G U69C", "self-cleavage": 0.863}, {"variant": "U21G U69G", "self-cleavage": 0.823}, {"variant": "C22A", "self-cleavage": 0.201}, {"variant": "C22A A23C", "self-cleavage": 0.202}, {"variant": "C22A A40C", "self-cleavage": 0.222}, {"variant": "C22A A40G", "self-cleavage": 0.246}, {"variant": "C22A A40U", "self-cleavage": 0.235}, {"variant": "C22A A42C", "self-cleavage": 0.251}, {"variant": "C22A A42G", "self-cleavage": 0.207}, {"variant": "C22A A51G", "self-cleavage": 0.169}, {"variant": "C22A A51U", "self-cleavage": 0.242}, {"variant": "C22A A52G", "self-cleavage": 0.214}, {"variant": "C22A A52U", "self-cleavage": 0.118}, {"variant": "C22A A60C", "self-cleavage": 0.129}]}]}
